From paper PMC6016244, “Escherichia coli ZipA Organizes FtsZ Polymers into Dynamic Ring-Like Protofilament Structures” (mBio, 2018)

T1: Alexa Fluor 488-labeled FtsZ (E. coli, UniProt P0A9A6 1-383, Alexa Fluor 488 (succinimidyl ester probe, 1:10 molar ratio); labelled residues not stated)
T1 construct: Cell division protein FtsZ, Escherichia coli; wild type; Same protein as m1, with a fluorescent label; used on supported lipid bilayers; also called FtsZ-Alexa Fluor 488; FtsZ Alexa Fluor 488
T1 sequence (looked up): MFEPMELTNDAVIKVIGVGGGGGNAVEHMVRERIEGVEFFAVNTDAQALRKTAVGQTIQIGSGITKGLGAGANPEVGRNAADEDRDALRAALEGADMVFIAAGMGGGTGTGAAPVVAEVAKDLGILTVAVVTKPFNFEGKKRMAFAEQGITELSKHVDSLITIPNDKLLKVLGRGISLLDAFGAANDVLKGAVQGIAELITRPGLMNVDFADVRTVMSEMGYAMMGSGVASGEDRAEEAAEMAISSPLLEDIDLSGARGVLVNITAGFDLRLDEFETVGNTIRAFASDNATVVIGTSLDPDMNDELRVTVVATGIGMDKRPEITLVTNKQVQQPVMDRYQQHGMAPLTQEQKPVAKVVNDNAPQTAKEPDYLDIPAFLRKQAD

B1: E. coli FtsZ (natural protein, UniProt P0A9A6 1-383, looked up)
chain: T1 sequence (looked up)
notes: Cell division protein FtsZ, Escherichia coli; wild type; Unlabelled FtsZ of the lipid monolayer / electron microscopy assays; Polymerised with GTP or GMPcPP; source: plasmid pMFV56 (pET28a-FtsZ)
B2: Alexa Fluor 647-labeled sZipA (domain or fragment)
chain: not shown
modifications: Alexa Fluor 647 (succinimidyl ester probe, 1:10 molar ratio); labelled residues not stated
notes: Cell division protein ZipA, Escherichia coli; first 25 amino acids replaced by a His6 tag; Same construct as m2, with a fluorescent label; attached to supported lipid bilayers that contain NTA lipids; also called fluorescent sZipA; not shown: His6, N-terminal, kept

Tests used:
[1] = molecular target: the molecule itself; assay: lipid monolayer assay with negative stain electron microscopy; sZipA (1-2 µM) held by its His6 tag on E. coli polar lipid (or DOPC) monolayers with 0.5 to 10% DGS-NTA; FtsZ 0.5 to 5 µM added, then 2 mM GTP or 0.5 mM GMPcPP; Z-buffer (50 mM Tris-HCl pH 7.5, 300 mM KCl, 5 mM MgCl2); control: FtsZ on NTA monolayers without sZipA
[2] = molecular target: T1, Alexa Fluor 488-labeled FtsZ; assay: self-organization assay on supported lipid bilayers, confocal and STED fluorescence microscopy; Alexa Fluor 647-labeled sZipA attached to supported bilayers of E. coli polar lipids with 0.5% NTA lipids (low density); 1 µM FtsZ-Alexa Fluor 488 added, then 2 mM GTP or 0.5 mM GMPcPP; Z-buffer; conditions: both partners purified

Row | Binder | binding result [1] | binding result [2]
1 | B1 | binds | 
2 | B2 |  | binds
